From US20240425607A1, “IL-18BP ANTAGONIST ANTIBODIES AND THEIR USE IN MONOTHERAPY AND COMBINATION THERAPY IN THE TREATMENT OF CANCER” (Compugen Ltd., priority 2023, published 2024)
Numbering of substitutions follows the chain as printed.

What was measured:
[1] = system: B16/Db-hmgp100 melanoma model; assay: B16/Db-hmgp100 syngeneic tumor model; settings: 10 mg/kg from day 4
Method: B16/Db-hmgp100 cells were kindly provided by Dr. Hanada et al. (HHS agency) and were licensed from NIH. B16/Db-hmgp100 cells were generated by double transduction of B16F10 with H-2Db and a retrovirus that encodes chimeric mouse gp100 that is comprised of the human gp10025-33 and the rest of mouse gp100. Cells were cultured in RPMI 1640 (Biological Industries, 01-100-1A) with 10% FBS (Biological Industries, 04-127-1A), and 100 g/mL penicillin/streptomycin (Biological Industries, 03-031-1B), 1% Glutamax (Life technologies, 35050-038), 1% Sodium pyruvate (Biological Industries, 03-042-1B), 0.01% 2-mercaptoethanol (Life technologies, 31350-010), 10 μg/ml Blasticidin (InvivoGen, ant-bl-05). 1×10^5 B16/Db-hmgp100 cells subcutaneously into the back right flank of mice.
In both CT26 and B16/Db-hmgp100 models mAb administration started at day 4 (mono treatment) or day 7 post tumor inoculation when tumors were at volume of 30-50 mm^3 (combo treatment); and was given intra-peritoneal (i.p.) in a final volume/injection of 200 μl, for 3 wks for a total of 6 administrations. Tumor growth was measured with electronic caliper every 2-3 days and was reported as 0.5×W^2×L mm^3. […]
At day 4 post tumor inoculation mice were treated with mAbs (as detailed below) injected on day 4, 7, 11, 14, 18 and 21 post inoculation. Tumor growth was measured with caliper every 2-3 days. […]

[2] = Fab Tm by dynamic scanning fluorimetry (DSF); format: physicochemical; settings: optimized antibodies
Method: 10 μL of 20× Sypro Orange is added to 20 μL of 0.2-1 mg/mL mAb or Fab solution. A RT-PCR instrument (BioRad CFX96 RT PCR) is used to ramp the sample plate temperature from 40 to 95° C. at 0.5° C. increment, with 2 min equilibrate at each temperature. The negative of first derivative for the raw data is used to extract Tm.

[3] = SEC-HPLC % monomer; format: physicochemical; settings: optimized antibodies
Method: A TSKgel SuperSW mAb HTP column (22855) was used for fast SEC analysis of mammalian produced mAbs at 0.4 mL/min with a cycle time of 6 min/run. 200 mM Sodium Phosphate and 250 mM Sodium Chloride was used as the mobile phase.

[4] = system: whole blood; assay: Whole blood loop assay (ID.Flow); format: cell-based, human; settings: blood of six healthy volunteers, 24 hr
Method: Flow, an ex vivo system that mimics the human blood circulation. Fresh whole blood was taken from six healthy volunteers and immediately transferred to a whole blood loop system. The test items were administered, and the blood was set to circulate at 37° C. to prevent clotting. Blood samples collected at the 24 hr time point were analyzed for hematology and flow cytometry parameters and then processed to plasma for cytokine analysis. The anti-CD52 antibody Alemtuzumab was included as a reference antibody with manageable cytokine release in the clinic.

[5] = target: T1, recombinant human IL18-BP (Homo sapiens, UniProt O95998); assay: CMV recall assay; format: cell-based
T1 construct: purchased R&D systems 119-BP
T1 sequence (O95998 31-194): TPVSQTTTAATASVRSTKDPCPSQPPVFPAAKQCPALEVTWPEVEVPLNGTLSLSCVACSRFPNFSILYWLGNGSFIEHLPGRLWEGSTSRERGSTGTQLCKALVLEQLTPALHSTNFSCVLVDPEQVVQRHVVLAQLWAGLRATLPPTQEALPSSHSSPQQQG
Method: Human MEL-624 overexpressing PD-L1 cells were thawed and loaded with CMV pp65 peptide (0.03 μg/ml). The cells were seeded at 100K/well in a 96 well plate and incubated for 30 minutes in 37° C., 5% C02 incubator with a combination rhIL-18 (30 ng/ml, R&D systems, 9124-IL/CF) and rhIL-18BP-Fc chimeric protein (2 μg/ml, R&D systems 119-BP) to allow IL-18+IL-18BP complex formation. After 30 minutes, anti-human IL-18BP (ADI-71722), anti-human PVRIG, anti-human TIGIT (anti-TIGIT), anti-human PD1 (Pembrolizumab) or relevant isotype control (hIgG4) were added to the culture to examine their capability to restore IL-18 activity. All antibodies were added to a final concentration of 10 μg/ml. 30 minutes post incubation with antibodies, thawed CMV-reactive T-cells were added to the culture. Cells and all added solutions were prepared in full IMDM (IMDM media with 10% human serum, 1% Glutamax, 1% MEM eagle, 1% sodium pyruvate, and 1% Penicillin-Streptomycin Solution) to a final volume of 200 μl/well. Plates were incubated for 24 hours in 37° C., 5% C02 incubator, after which the supernatant was collected for IFNγ secretion evaluation. All tests were done in triplicates and each repeated with three donors.
MEL624 cells that overexpress PD-L1 were loaded with CMV peptide pp65. […] CMV-specific T-cells were then added to the culture and IFNg secretion was measured after an overnight incubation.

[6] = target: T2, human IL18BP-Fc binding to human IL-18 (Homo sapiens, UniProt O95998); assay: Blocking of hIL18BP-hIL-18 interaction by ELISA, IL18BP plate bound; settings: 1 ng/ml human IL-18, compared with clone W19089C
T2 sequence (O95998 31-194): T1 sequence (O95998 31-194)
Method: This assay was utilized to identify anti-human IL18BP Abs that inhibit the binding interaction between human IL18BP- and its counterpart, human IL-18. […] Human IL18BP-Fc protein was coated on the wells of a high binding plate overnight at 4° C. (1 μg/ml, 100 μl/well volume). Plates were washed three times with PBS-T buffer (1×PBS pH 7.4, 0.05% Tween20) incubated with 250 μL blocking buffer (2.5% skim milk in PBS) at room temperature (RT) for 2 hr. Blocking buffer was removed and plates were washed three times with PBS-T buffer. Plate-bound ligands were incubated with anti-human IL18BP Abs in 1% BSA in PBS buffer two times serially diluted (2.5-0.019 μg/ml, 100 μL/well volume) at RT for 1 h. Plates were washed one time with PBS. Plate-bound ligands were incubated with human IL-18 (cat. 9124-IL, R&D) in 1% BSA in PBS buffer (1 ng/ml, 100 μL/well volume) at RT for 1 h. Plates were washed three times with PBS-T (0.05% Tween20 in PBS). Biotinylated anti-IL18 detection antibody, cat. D045-6, R&D 1:1000 in 1% BSA in PBS buffer was added (100 μL/well). This was incubated at RT for 1 hr, and plates were washed again. Peroxidase Streptavidin, Jackson, cat. 016-030-084 1:1000 in 2.5% skim milk in PBS was added (100 μL/well) for 1 hr at RT. […] The HRP reaction was stopped by adding 50 μL 1N HCl and absorbance signals at 450 nm were read on a luminescence Reader-EnSpire (Perkin Elmar). […]

[7] = target: T1, recombinant human IL18-BP; assay: MEL624:TIL assay; format: cell-based; settings: rhIL-18 30 ng/ml + rhIL-18BP 1 μg/ml, vs isotype control
Method: Human MEL624 cells were thawed and grown in DMEM with 10% FBS, 1% Glutamax, 1% Penicillin-Streptomycin Solution and 1% HEPES buffer. The cells were then seeded at 75 k cells/well in a 96 well plate in the assay medium (IMDM with 10% human serum, 1% Glutamax, 1% MEM eagle, 1% Sodium Pyruvate and 1% Penicillin-Streptomycin Solution) and incubated 1 hour in 37° C., 5% CO2 incubator before co-culture with human tumor infiltrating lymphocytes that were previously expanded using known melanoma antigens (TILs). Human TILs were thawed in full TIL media and 75 k cells/well were co-cultured with the MEL624 cells to create an effector: target ratio of 1:1. The co-cultured cells were then treated with rhIL-18 (30 ng/ml) and rhIL-18BP (1 μg/ml) for 30 min in 37° C., 5% CO2 incubator to allow IL-18:IL-18BP complex formation. After 30 minutes, anti-human IL-18BP mAb (ADI-71722, dose titration, 30 μg/ml-0.01 μg/ml, dilution factor of 1:3) or relevant isotype control (hIgG1 30 μg/ml) were added to the co-culture to examine its capability to restore IL-18 activity. Cells and all added solutions were prepared in full assay medium to a final volume of 200 μl/well. Plates were incubated for 24 hours in 37° C., 5% CO2 incubator, after which the supernatant was collected for cytokine secretion evaluation. All tests were done in triplicates and each repeated with TIL four donors. […]

[8] = target: T3, human IL-18-BP : human IL-18 complex (Homo sapiens, UniProt O95998); assay: Competition ELISA with complex of soluble IL18-IL18BP; format: binding; settings: ADI-66716 vs MAB1191
T3 construct: purchased R&D systems 119-BP
T3 sequence (O95998 31-194): T1 sequence (O95998 31-194)
Method: This assay was utilized to identify anti-human IL18BP Abs that inhibit the binding interaction between human IL18BP- and its counterpart, human IL-18. Commercial Ab anti human IL18BP (Clone 136007, cat. MAB1191, R&D systems) and ADI-66716 were tested for inhibition of human IL18BP protein binding to IL-18 by ELISA. Human IL18BP antibody (cat.AF 119, R&D) was coated on the wells of a high binding plate overnight at 4° C. (1 ug/ml, 100 μl/well volume). Plates were washed three times with PBS-T buffer (1×PBS pH 7.4, 0.05% Tween20) incubated with 250 μL blocking buffer (2.5% skim milk in PBS) at room temperature (RT) for 2 hr. Blocking buffer was removed and plates were washed three times with PBS-T buffer. Complex pre-formed 1 hour at 37° C. with 0.25 nM human IL-18-BP (R&D, cat. 119BP) and 3 nM Human IL-18 Biotin (9124-IL, R&D) in 1% BSA in PBS buffer. Complex was incubated for 2 hrs at RT together with anti-human IL18BP Abs (in 1% BSA in PBS buffer two times serially diluted. 4-0.06 μg/ml, 100 μL/well volume). Peroxidase Streptavidin, Jackson, cat. 016-030-084 1:1000 in 2.5% skim milk in PBS was added (100 μL/well) for 1 hr at RT. Plates were washed three times with PBS-T buffer (1×PBS pH 7.4, 0.05% Tween20). […] The HRP reaction was stopped by adding 50 μL 1N HCl and absorbance signals at 450 nm were read on a luminescence Reader-EnSpire (Perkin Elmar). […]

B1: anti-PVRIG: Anti PVRIG mAb 407 mAb mouse IgG1, BOJ-5G4-F4 (antibody, V domains shown)
VH: QVQLQQSGAELAKPGSSVMISCKASGYTFTNYAVHWIKQTTGQALEWTGYIAPGSGVTKYNEKFKGKATLTVDKSSTTAYMQLSSLTPVDTAVYYCASGTTRFAYWGQGTLVTVSS
VL: DIVLTQSPALAVSLGQRATISCRASQSVSLSSYNLMQWYQQKPGQEPKILIYDASNLPSGIPARFSGSGSGTDFTLTIDPVQADDIATYYCQQSKDDPLTFGSGTKLEIK
With B1 the “Tumor growth, anti-PVRIG monotherapy” value [1] was “comparable tumor growth to mice treated with isotype control mAbs”.

B2: ADI-71709: anti-IL18-BP antibody, sequences in FIG. 2A; 66650 lineage (antibody, V domains shown)
VH: QVQLVQSGAEVKKPGASVKVSCEASGYTFDIYAVHWVRQAPGQRLEWMGWIHAGTGATKYSQKFQGRVTITRDTSASTAYMELSSLRSEDTAVYYCARGLGEVGPTGTSWFDPWGQGTLVTVSS
VL: DIQMTQSPSTLSASVGDRVTITCRASQSISSWLAWYQQKPGKAPKLLIYEASSLESGVPLRFSGSGSGTEFTLTISSLQPDDFATYYCQQYRQSPFTFGGGTKVEIK
For B2, the “Fab Tm (DSF, ° C.)” value [2] was 71.5 °C, the “SEC-HPLC, % monomer” value [3] was 97.6% and the “Signs of systemic immune activation, in combination with Nivolumab” value [4] was “did not show signs of systemic immune activation”. The “Signs of systemic immune activation, as mono” value ([4]; hematology, flow cytometry, cytokines) was “did not show signs of systemic immune activation”.

B3: ADI-71722: anti-IL18-BP antibody, sequences in FIG. 2D; 66670 lineage (antibody, V domains shown)
VH: QVQLVQSGAEVKKPGSSVKVSCKASGGTFSEYPISWVRQAPGQGLEWMGGIIPGAGTAIYAQKFQGRVTITADESTSTAYMELSSLRSEDTAVYYCARGRHFHETWGQGTLVTVSS
VL: DIQMTQSPSSVSASVGDRVTITCRASQGISSWLAWYQQKPGKAPKLLIYAASSLQSGVPSRFSGSGSGTDFTLTISSLQPEDFATYYCQQVYRFPWTFGGGTKVEIK
With B3 the “Fab Tm (DSF, ° C.)” value [2] was 73.0 °C, the “IFNγ secretion by CMV-reactive T-cells, as mono” value ([5]; 10 μg/ml, rhIL-18 30 ng/ml + rhIL-18BP 2 μg/ml) was “fully restore IFNγ secretion” and the “IFNγ secretion by CMV-reactive T-cells, in combination” value ([5]; combined with Pembrolizumab, anti-PVRIG or anti-TIGIT, each 10 μg/ml, vs mono) was “in a more potent manner”. For the same molecule, the “Blocking effect on binding of human IL18BP to human IL-18” value [6] was “superior to Biolegend Ab”, the “IFNγ secretion from TILs” value [7] was “fully restore IL-18 activity” and the “SEC-HPLC, % monomer” value [3] was 95.9%.

B4: ADI-66716: anti-IL18-BP antibody, sequences in FIG. 2N; parental (antibody, V domains shown)
VH: QLQLQESGPGLVKPSETLSLTCTVSGGSISSSDYYWGWIRQPPGKGLEWIGSIYYSGSTYYNPSLKSRVTISVDTSKNQFSLKLSSVTAADTAVYYCARGPHRQVFDYWGQGTLVTVSS
VL: B3 VL with V91G, Y92S, R93S, W96Y
For B4, the “Blocking of IL18-IL18BP complex formation” value [8] was “superior blocking effect to R&D antibody”.
